# Legend:
# [1] = acid pH; cited from earlier work
# [2] = tested on: Streptozotocin induced diabetic Wistar or Sprague Dawley rats; assay: Modification of blood/serum glucose of diabetic rats; format: in vivo, rat; conditions: IV administration, FIG. 1
# [3] = rat, in vivo, iv
Substance,solubility [1],duration of hypoglycemic effect [2],reduction of blood glucose levels [2],plasma insulin levels [3]
Insulin Glargine,soluble at acid pH,–,–,–
Insulin Lispro,–,short lived,rapid reduction of blood glucose levels,increased in accordance with the reduction in serum glucose levels but reduced rapidly

# Source: patent publication US10143754B2, “Method for peroral delivery of insulin and its analogues for therapeutic usage” (TRANSGENE BIOTEK LIMITED, priority 2011, dated 2018)
